Experimental findings from the supplement of paper PMC5998384 are described below.

In data set [1] the test system is HeLa Kyoto. Put plainly: thermal stability score vs G1/S (z-score of summed log2 fold changes over temperatures); higher = more thermally stable than in G1/S.
Data set [2] relates to HeLa Kyoto. Put plainly: solubility in G1/S (NP-40 vs SDS abundance) (log2 ratio); higher = more soluble. As to conditions: cell cycle stage: G1/S.
Data set [3] has as its system HeLa Kyoto. Put plainly: melting temperature (median over replicates), in situ; higher = more thermally stable.
For data set [4], the system named is HeLa Kyoto. Put plainly: solubility change mitosis vs G1/S (difference of NP-40 vs SDS log2 ratios) (log2 ratio difference); higher = more soluble in mitosis.
The mark [5] stands for this setting: cell cycle stage: early G1 (4.5 h after nocodazole release).
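Throughout, for melting temperature (median over replicates), in situ: HeLa Kyoto cells synchronized by double thymidine or nocodazole block, proteins quantified by TMT10plex mass spectrometry, three independent biological replicates.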
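Throughout, for solubility change mitosis vs G1/S (difference of NP-40 vs SDS log2 ratios): synchronized HeLa Kyoto cells (double thymidine block for G1/S, nocodazole release for mitosis), protein amounts in NP-40 versus SDS lysates quantified by mass spectrometry, three biological replicates.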
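Throughout, for solubility in G1/S (NP-40 vs SDS abundance): HeLa Kyoto cells arrested at G1/S by double thymidine block, proteins quantified by TMT10plex mass spectrometry in mild NP-40 versus SDS extracts, three biological replicates.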
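Throughout, for thermal stability score vs G1/S (z-score of summed log2 fold changes over temperatures): synchronized HeLa Kyoto cells, proteins quantified by TMT10plex mass spectrometry, three biological replicates, mitosis taken 0.5 h after nocodazole release, G1/S directly after double thymidine block.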

Turning to “MSSDASQGVITTPPPPSMPHKERYFDRINENDPEYIRERNMSPDLRQDFNMMEQRKRVTQILQSPAFREDLECLIQEQMKKGHNPTGLLALQQIADYIMANSFSGFSSPPLSLGMVTPINDLPGADTSSYVKGEKLTRCKLASLYRLVDLFGWAHLANTYISVRISKEQDHIIIIPRGLSFSEATASNLVKVNIIGEVVDQGSTNLKIDHTGFSPHAAIYSTRPDVKCVIHIHTLATAAVSSMKCGILPISQESLLLGDVAYYDYQGSLEEQEERIQLQKVLGPSCKVLVLRNHGVVALGETLEEAFHYIFNVQLACEIQVQALAGAGGVDNLHVLDFQKYKAFTYTVAASGGGGVNMGSHQKWKVGEIEFEGLMRTLDNLGYRTGYAYRHPLIREKPRHKSDVEIPATVTAFSFEDDTVPLSPLKYMAQRQQREKTRWLNSPNTYMKVNVPEESRNGETSPRTKITWMKAEDSSKVSGGTPIKIEDPNQFVPLNTNPNEVLEKRNKIREQNRYDLKTAGPQSQLLAGIVVDKPPSTMQFEDDDHGPPAPPNPFSHLTEGELEEYKRTIERKQQGLEDAEQELLSDDASSVSQIQSQTQSPQNVPEKLEENHELFSKSFISMEVPVMVVNGKDDMHDVEDELAKRVSRLSTSTTIENIEITIKSPEKIEEVLSPEGSPSKSPSKKKKKFRTPSFLKKNKKKEKVEA [ADD3]”, the thermal stability score in data set [1] (setting [5]) is -4.93; in data set [1] (cell cycle stage: mitosis), -3.64. Moreover, in data set [2], the “solubility in G1/S (log2)” value was -0.181. Also, the results for the melting temperature in data set [3] (cell cycle stage: G1/S) and in data set [3] (cell cycle stage: mitosis) were 55.9 °C and 55.5 °C, respectively. Besides, in data set [4], the “solubility change mitosis (log2)” value worked out at 0.481.
Take “MSSEDREAQEDELLALASIYDGDEFRKAESVQGGETRIYLDLPQNFKIFVSGNSNECLQNSGFEYTICFLPPLVLNFELPPDYPSSSPPSFTLSGKWLSPTQLSALCKHLDNLWEEHRGSVVLFAWMQFLKEETLAYLNIVSPFELKIGSQKKVQRRTAQASPNTELDFGGAAGSDVDQEEIVDERAVQDVESLSNLIQEILDFDQAQQIKCFNSKLFLCSICFCEKLGSECMYFLECRHVYCKACLKDYFEIQIRDGQVQCLNCPEPKCPSVATPGQVKELVEAELFARYDRLLLQSSLDLMADVVYCPRPCCQLPVMQEPGCTMGICSSCNFAFCTLCRLTYHGVSPCKVTAEKLMDLRNEYLQADEANKRLLDQRYGKRVIQKALEEMESKEWLEKNSKSCPCCGTPIEKLDGCNKMTCTGCMQYFCWICMGSLSRANPYKHFNDPGSPCFNRLFYAVDVDDDIWEDEVED [RNF14]”: the figures for the thermal stability score in data set [1] (setting [5]) and in data set [1] (cell cycle stage: mitosis) were 0.508 and 1.14, respectively. Further, the “solubility in G1/S (log2)” value in data set [2] is 0.119. In addition, the values for the melting temperature in data set [3] (cell cycle stage: G1/S) and in data set [3] (cell cycle stage: mitosis) were 49.6 °C and 49.1 °C, respectively. For the same sequence, the “solubility change mitosis (log2)” value in data set [4] was -0.286.
Regarding “MSSFSESALEKKLSELSNSQQSVQTLSLWLIHHRKHAGPIVSVWHRELRKAKSNRKLTFLYLANDVIQNSKRKGPEFTREFESVLVDAFSHVAREADEGCKKPLERLLNIWQERSVYGGEFIQQLKLSMEDSKSPPPKATEEKKSLKRTFQQIQEEEDDDYPGSYSPQDPSAGPLLTEELIKALQDLENAASGDATVRQKIASLPQEVQDVSLLEKITDKEAAERLSKTVDEACLLLAEYNGRLAAELEDRRQLARMLVEYTQNQKDVLSEKEKKLEEYKQKLARVTQVRKELKSHIQSLPDLSLLPNVTGGLAPLPSAGDLFSTD [RPRD1B]”, the thermal stability score in data set [1] (setting [5]) is -0.302; in data set [1] (cell cycle stage: mitosis), 0.484. The “solubility in G1/S (log2)” value in data set [2] was 0.562. Also, the melting temperature in data set [3] (cell cycle stage: G1/S) was 49.5 °C; in data set [3] (cell cycle stage: mitosis), 50 °C. Also, the “solubility change mitosis (log2)” value in data set [4] is 0.00357.
For the sequence “MSSGAPQKSSPMASGAEETPGFLDTLLQDFPALLNPEDPLPWKAPGTVLSQEEVEGELAELAMGFLGSRKAPPPLAAALAHEAVSQLLQTDLSEFRKLPREEEEEEEDDDEEEKAPVTLLDAQSLAQSFFNRLWEVAGQWQKQVPLAARASQRQWLVSIHAIRNTRRKMEDRHVSLPSFNQLFGLSDPVNRAYFAVFDGHGGVDAARYAAVHVHTNAARQPELPTDPEGALREAFRRTDQMFLRKAKRERLQSGTTGVCALIAGATLHVAWLGDSQVILVQQGQVVKLMEPHRPERQDEKARIEALGGFVSHMDCWRVNGTLAVSRAIGDVFQKPYVSGEADAASRALTGSEDYLLLACDGFFDVVPHQEVVGLVQSHLTRQQGSGLRVAEELVAAARERGSHDNITVMVVFLRDPQELLEGGNQGEGDPQAEGRRQDLPSSLPEPETQAPPRS [PPM1F]”, the values for the thermal stability score in data set [1] (setting [5]) and in data set [1] (cell cycle stage: mitosis) were -0.813 and -0.95, respectively. The “solubility in G1/S (log2)” value in data set [2] was 0.464. For the same sequence, the figures for the melting temperature in data set [3] (cell cycle stage: G1/S) and in data set [3] (cell cycle stage: mitosis) were 51.8 °C and 52.7 °C, respectively. Further, in data set [4], the “solubility change mitosis (log2)” value was -0.0364.
As to “MSSGIHVALVTGGNKGIGLAIVRDLCRLFSGDVVLTARDVTRGQAAVQQLQAEGLSPRFHQLDIDDLQSIRALRDFLRKEYGGLDVLVNNAGIAFKVADPTPFHIQAEVTMKTNFFGTRDVCTELLPLIKPQGRVVNVSSIMSVRALKSCSPELQQKFRSETITEEELVGLMNKFVEDTKKGVHQKEGWPSSAYGVTKIGVTVLSRIHARKLSEQRKGDKILLNACCPGWVRTDMAGPKATKSPEEGAETPVYLALLPPDAEGPHGQFVSEKRVEQW [CBR1]”, the figures for the thermal stability score in data set [1] (setting [5]) and in data set [1] (cell cycle stage: mitosis) were -1.36 and -0.874, respectively. Further, in data set [2], the “solubility in G1/S (log2)” value was determined as 0.626. In addition, the melting temperature in data set [3] (cell cycle stage: G1/S) is 53.2 °C; in data set [3] (cell cycle stage: mitosis) it was 53 °C. Further, the “solubility change mitosis (log2)” value in data set [4] is -0.0843.
“MSSGKSARYNRFSGGPSNLPTPDVTTGTRMETTFGPAFSAVTTITKADGTSTYKQHCRTPSSSSTLAYSPRDEEDSMPPISTPRRSDSAISVRSLHSESSMSLRSTFSLPEEEEEPEPLVFAEQPSVKLCCQLCCSVFKDPVITTCGHTFCRRCALKSEKCPVDNVKLTVVVNNIAVAEQIGELFIHCRHGCRVAGSGKPPIFEVDPRGCPFTIKLSARKDHEGSCDYRPVRCPNNPSCPPLLRMNLEAHLKECEHIKCPHSKYGCTFIGNQDTYETHLETCRFEGLKEFLQQTDDRFHEMHVALAQKDQEIAFLRSMLGKLSEKIDQLEKSLELKFDVLDENQSKLSEDLMEFRRDASMLNDELSHINARLNMGILGSYDPQQIFKCKGTFVGHQGPVWCLCVYSMGDLLFSGSSDKTIKVWDTCTTYKCQKTLEGHDGIVLALCIQGCKLYSGSADCTIIVWDIQNLQKVNTIRAHDNPVCTLVSSHNVLFSGSLKAIKVWDIVGTELKLKKELTGLNHWVRALVAAQSYLYSGSYQTIKIWDIRTLDCIHVLQTSGGSVYSIAVTNHHIVCGTYENLIHVWDIESKEQVRTLTGHVGTVYALAVISTPDQTKVFSASYDRSLRVWSMDNMICTQTLLRHQGSVTALAVSRGRLFSGAVDSTVKVWTC [TRAF7]”: the thermal stability score in data set [1] (setting [5]) was -0.465; in data set [1] (cell cycle stage: mitosis) it was 0.328. Also, the “solubility in G1/S (log2)” value in data set [2] was -0.171. The sequence also displayed a melting temperature in data set [3] (cell cycle stage: G1/S) of 50.5 °C. In addition, the “solubility change mitosis (log2)” value in data set [4] was -0.0251.
